Reference: US7064181 (Takeda / Millennium, dated 2006)

T1: rat GALR2 (galanin receptor type 2) (rat, UniProt O08726 1-372)
T1 construct: Expressed in CHO/dhfr- cells; The assays used the membrane fraction of these cells; also called rat galanin receptor GALR2
T1 sequence: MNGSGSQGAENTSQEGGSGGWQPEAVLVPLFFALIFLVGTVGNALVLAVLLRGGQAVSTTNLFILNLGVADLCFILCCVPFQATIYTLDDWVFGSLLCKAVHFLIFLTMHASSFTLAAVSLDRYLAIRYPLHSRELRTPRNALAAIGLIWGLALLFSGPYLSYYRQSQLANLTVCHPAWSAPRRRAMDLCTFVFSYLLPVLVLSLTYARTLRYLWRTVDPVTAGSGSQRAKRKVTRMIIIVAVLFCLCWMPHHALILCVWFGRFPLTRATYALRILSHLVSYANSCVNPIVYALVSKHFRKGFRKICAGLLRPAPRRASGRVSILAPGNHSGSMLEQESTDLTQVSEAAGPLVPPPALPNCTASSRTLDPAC

B1: porcine ligand peptide (1-60) (peptide)
peptide: APVHRGRGGWTLNSAGYLLGPVLHPPSRAEGGGKGKTALGILDLWKAIDGLPYPQSQLAS
notes: also called porcine (1-60); inventive peptide synthesis product

Experiments:
[1] = target: T1, rat GALR2 (galanin receptor type 2); assay: displacement of [125I] rat galanin from GALR2-expressing CHO cell membrane fraction
[2] = target: T2, monoclonal antibody GR2-1N; assay: competitive EIA on GR2-1N, competitor HRP-labeled SEQ ID NO:44 peptide
T2 construct: Mouse monoclonal against the same KLH complex; IgG2b, κ; also called hybridoma strain No. 4

| Binder | IC50 [1] [nM] | IC50 [2] [nM] |
| --- | --- | --- |
| APVHRGRGGWTLNSAGYLLGPVLHPPSRAE (also called porcine (1-30)) [porcine ligand peptide (1-30)] | 1.4 | – |
| APVHRGRGGWTLNSAGYLLGPVLHPPSRAEGGGK (also called porcine (1-34)) [porcine ligand peptide (1-34)] | 1.4 | – |
| B1 | – | 6 |
